Test results reported in article PMC7199855, “GRAF2, WDR44, and MICAL1 mediate Rab8/10/11–dependent export of E-cadherin, MMP14, and CFTR ΔF508” (The Journal of Cell Biology, 2020).

How the values were obtained:
GST–WDR44 ΔC = target: T1, GST–WDR44 ΔC (human, UniProt Q5JSH3 1-472); assay: pull-down; in vitro: GST-tagged WDR44 or MICAL1 domains on glutathione sepharose beads with an equal amount of Thrombin-released GRAF2 SH3, 30 min 4°C, washed in bacterial lysis buffer (20 mM Hepes pH 7.4, 1 mM DTT, NaCl); Coomassie staining; details: both partners purified
T1 construct: aa 1–472 of human WDR44 (N-tag clone: forward primer begins at codon 2); source: E. coli BL21(DE3) pLysS, purified on glutathione sepharose beads; not shown: GST, N-terminal, kept
T1 sequence (looked up): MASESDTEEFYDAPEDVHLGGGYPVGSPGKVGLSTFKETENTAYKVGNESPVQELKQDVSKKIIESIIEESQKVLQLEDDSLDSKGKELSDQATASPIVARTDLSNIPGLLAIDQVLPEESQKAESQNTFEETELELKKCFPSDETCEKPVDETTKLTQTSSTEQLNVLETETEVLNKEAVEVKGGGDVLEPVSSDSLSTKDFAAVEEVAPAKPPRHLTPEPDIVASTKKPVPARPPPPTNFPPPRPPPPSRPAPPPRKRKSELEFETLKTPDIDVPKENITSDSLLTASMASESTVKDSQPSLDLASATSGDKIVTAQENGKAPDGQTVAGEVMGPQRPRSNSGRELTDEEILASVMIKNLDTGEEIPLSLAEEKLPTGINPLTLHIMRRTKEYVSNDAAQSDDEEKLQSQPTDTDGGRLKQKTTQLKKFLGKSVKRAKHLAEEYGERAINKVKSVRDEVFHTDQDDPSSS

GST–MICAL1 ΔMOΔCH = target: T2, GST–MICAL1 ΔMOΔCH (human, UniProt Q8TDZ2 651-1067); assay: as above; details: both partners purified
T2 construct: aa 651–1067 of human MICAL1; source: E. coli BL21(DE3) pLysS, purified on glutathione sepharose beads; not shown: GST, N-terminal, kept
T2 sequence (looked up): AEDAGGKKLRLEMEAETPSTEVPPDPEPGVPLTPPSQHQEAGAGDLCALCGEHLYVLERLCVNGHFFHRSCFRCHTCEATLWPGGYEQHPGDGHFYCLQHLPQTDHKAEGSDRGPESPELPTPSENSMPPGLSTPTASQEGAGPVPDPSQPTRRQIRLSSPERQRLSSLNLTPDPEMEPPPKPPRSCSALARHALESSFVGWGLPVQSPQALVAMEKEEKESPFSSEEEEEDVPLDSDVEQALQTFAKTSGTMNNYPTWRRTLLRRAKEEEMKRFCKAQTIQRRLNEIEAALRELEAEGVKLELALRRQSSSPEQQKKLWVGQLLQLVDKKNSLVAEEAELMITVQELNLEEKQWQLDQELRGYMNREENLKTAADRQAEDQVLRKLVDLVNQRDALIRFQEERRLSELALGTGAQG

- binding result (GST–WDR44 ΔC): binds
- binding result (GST–MICAL1 ΔMOΔCH): binds
B1: GRAF2 SH3 (released from GST by Thrombin) (domain or fragment, human, UniProt A1A4S6 718-786, looked up)
chain: ATVADKPPESIRSRKARAVYPCEAEHSSELSFEIGAIFEDVQTSREPGWLEGTLNGKRGLIPQNYVKLL
notes: SH3 domain construct, aa 718–786 of human GRAF2; same construct as m2 with GST cut off; source: E. coli BL21(DE3) pLysS; released from GST-GRAF2 SH3 beads with Thrombin; not shown: GST, N-terminal, cleaved
